Results from paper PMC7069705 (Science Advances, 2019).

B1: KAP3 (separately purified) (natural protein, mouse, UniProt P70188-1 1-793, looked up)
chain: MQGEDARYLKRKVKGGNIDVHPSEKALIVQYEVEATILGEMGDPMLGERKECQKIIRLKSLNANTDITSLARKVVEECKLIHPSKLSEVEQLLYYLQNRRDSLPGKEKKEKSSKPKDPPPFEGMEIDEVANINDMDEYIELLYEDIPDKVRGSALILQLARNPDNLEELLLNETALGALARVLREDWKQSVELATNIIYIFFCFSSFSHFHGLITHYKIGALCMNIIDHELKRHELWQEELSKKKKAVDEDLENQTLRKDYDKTFKKYQGLVVKQEQLLRVALYLLLNLAEDTRTELKMRNKNIVHMLVKALDRDNFELLILVVSFLKKLSIFMENKNDMVEMDIVEKLVKMIPCEHEDLLNITLRLLLNLSFDTGLRNKMVQVGLLPKLTALLGNENYKQIAMCVLYHISMDDRFKSMFAYTDCIPQLMKMLFECSDERIDLELISFCINLAANKRNVQLICEGNGLKMLMKRALKLKDPLLMKMIRNISQHDGPTKNLFIDYVGDLAAQISSDEEEEFVIECLGTLANLTIPDLDWELVLKEYKLVPFLKDKLKPGAAEDDLVLEVVIMIGTVSMDDSCAALLAKSGIIPALIELLNAQQEDDEFVCQIIYVFYQMVFHQATRDVIIKETQAPAYLIDLMHDKNNEIRKVCDNTLDIIAEYDEEWAKKIQSEKFRWHNSQWLEMVESRQLDESEQYLYGDDRIEPYIHEGDILERPDLFYNSDGLITSEGAISPDFFNDFHLQNGDVVGQHAFPGSLGMDGFGQPLGILGRPATAYGFRPDEPYYYSFGSR

Tests used:
[1] = molecular target: full-length APC–green fluorescent protein (GFP) (mouse, UniProt Q61315 1-2845); assay: MST
full-length APC–green fluorescent protein (GFP), sequence (Q61315 whole entry): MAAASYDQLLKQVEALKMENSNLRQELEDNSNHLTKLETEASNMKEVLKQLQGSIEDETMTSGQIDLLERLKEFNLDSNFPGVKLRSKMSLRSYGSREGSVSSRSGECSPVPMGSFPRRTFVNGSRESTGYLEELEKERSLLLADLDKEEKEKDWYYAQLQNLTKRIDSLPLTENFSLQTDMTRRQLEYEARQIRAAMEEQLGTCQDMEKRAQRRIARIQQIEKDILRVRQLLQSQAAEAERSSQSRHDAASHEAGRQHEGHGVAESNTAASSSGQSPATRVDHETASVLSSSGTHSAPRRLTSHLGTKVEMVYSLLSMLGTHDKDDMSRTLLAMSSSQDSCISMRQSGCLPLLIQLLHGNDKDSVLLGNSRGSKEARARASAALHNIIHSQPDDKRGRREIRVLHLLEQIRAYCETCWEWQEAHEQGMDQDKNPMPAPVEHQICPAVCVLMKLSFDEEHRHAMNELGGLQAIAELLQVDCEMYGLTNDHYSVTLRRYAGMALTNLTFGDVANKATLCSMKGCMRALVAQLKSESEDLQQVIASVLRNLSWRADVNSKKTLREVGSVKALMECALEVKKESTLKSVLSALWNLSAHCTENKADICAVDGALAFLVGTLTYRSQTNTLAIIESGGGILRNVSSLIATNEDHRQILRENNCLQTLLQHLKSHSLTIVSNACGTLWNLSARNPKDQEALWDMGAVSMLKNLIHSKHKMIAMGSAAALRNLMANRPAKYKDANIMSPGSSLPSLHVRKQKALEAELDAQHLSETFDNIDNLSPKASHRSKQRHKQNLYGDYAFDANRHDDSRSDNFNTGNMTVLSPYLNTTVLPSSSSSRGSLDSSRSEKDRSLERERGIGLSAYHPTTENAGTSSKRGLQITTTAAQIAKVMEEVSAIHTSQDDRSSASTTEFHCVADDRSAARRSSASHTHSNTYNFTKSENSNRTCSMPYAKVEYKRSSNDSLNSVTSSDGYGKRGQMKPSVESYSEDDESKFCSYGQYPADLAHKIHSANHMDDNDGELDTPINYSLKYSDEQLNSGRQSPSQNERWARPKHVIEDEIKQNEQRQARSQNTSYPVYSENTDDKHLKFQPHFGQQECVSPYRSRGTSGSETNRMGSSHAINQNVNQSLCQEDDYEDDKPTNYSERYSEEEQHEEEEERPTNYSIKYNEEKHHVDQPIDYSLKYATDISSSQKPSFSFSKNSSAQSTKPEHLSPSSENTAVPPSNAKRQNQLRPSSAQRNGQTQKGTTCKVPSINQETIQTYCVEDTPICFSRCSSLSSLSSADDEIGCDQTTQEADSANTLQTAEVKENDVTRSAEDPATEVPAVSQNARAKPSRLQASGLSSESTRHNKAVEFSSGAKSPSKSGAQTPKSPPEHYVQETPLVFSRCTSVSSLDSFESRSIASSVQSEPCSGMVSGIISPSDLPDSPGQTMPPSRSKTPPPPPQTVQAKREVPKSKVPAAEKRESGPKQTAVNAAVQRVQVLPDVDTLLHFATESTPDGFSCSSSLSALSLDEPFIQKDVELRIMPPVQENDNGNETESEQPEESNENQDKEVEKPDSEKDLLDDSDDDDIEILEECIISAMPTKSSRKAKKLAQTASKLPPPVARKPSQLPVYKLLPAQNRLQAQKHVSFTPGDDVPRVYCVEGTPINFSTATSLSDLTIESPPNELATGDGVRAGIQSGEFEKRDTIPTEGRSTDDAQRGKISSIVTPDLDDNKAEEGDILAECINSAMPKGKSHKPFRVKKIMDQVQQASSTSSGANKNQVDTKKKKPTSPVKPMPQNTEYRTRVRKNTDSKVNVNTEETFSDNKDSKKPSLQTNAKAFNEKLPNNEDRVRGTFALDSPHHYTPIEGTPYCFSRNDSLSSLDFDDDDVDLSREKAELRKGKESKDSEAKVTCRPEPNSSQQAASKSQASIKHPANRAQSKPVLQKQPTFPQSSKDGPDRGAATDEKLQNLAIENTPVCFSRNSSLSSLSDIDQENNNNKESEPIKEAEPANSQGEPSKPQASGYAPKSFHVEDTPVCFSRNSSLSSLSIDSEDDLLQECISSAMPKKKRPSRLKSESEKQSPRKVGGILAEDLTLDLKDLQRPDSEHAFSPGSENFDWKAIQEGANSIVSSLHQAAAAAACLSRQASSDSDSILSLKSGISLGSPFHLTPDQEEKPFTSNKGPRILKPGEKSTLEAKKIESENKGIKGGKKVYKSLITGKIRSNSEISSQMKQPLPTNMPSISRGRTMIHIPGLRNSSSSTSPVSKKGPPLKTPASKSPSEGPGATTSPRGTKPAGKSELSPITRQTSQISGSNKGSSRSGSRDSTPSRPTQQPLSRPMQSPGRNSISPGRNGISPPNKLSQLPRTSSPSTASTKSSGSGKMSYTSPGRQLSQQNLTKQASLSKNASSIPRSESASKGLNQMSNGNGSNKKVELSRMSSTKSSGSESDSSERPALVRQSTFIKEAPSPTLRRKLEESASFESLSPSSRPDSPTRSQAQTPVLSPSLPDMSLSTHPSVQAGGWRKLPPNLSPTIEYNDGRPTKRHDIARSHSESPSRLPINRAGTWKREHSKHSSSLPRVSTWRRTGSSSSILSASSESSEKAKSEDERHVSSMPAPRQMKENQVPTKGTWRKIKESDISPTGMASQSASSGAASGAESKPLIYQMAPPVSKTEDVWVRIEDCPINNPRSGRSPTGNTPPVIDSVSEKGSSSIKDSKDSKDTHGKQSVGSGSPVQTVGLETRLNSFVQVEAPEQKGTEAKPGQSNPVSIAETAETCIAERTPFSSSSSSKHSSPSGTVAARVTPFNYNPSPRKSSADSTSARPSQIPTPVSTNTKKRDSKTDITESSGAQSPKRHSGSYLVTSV

[2] = molecular target: the molecule itself; assay: single-molecule photobleaching step analysis
SEC-MALS = molecular target: the molecule itself; assay: SEC-MALS
[3] = molecular target: B1; assay: SEC-MALS

## B1
[1]
  binding result: binds

B2: homodimeric SNAP-KIF3A labeled with Alexa647 or TMR (natural protein, mouse, UniProt P28741 1-701, looked up)
chain: MPINKSEKPESCDNVKVVVRCRPLNEREKSMCYRQAVSVDEMRGTITVHKTDSSNEPPKTFTFDTVFGPESKQLDVYNLTARPIIDSVLEGYNGTIFAYGQTGTGKTFTMEGVRAVPGLRGVIPNSFAHIFGHIAKAEGDTRFLVRVSYLEIYNEEVRDLLGKDQTQRLEVKERPDVGVYIKDLSAYVVNNADDMDRIMTLGHKNRSVGATNMNEHSSRSHAIFTITIECSEKGVDGNMHVRMGKLHLVDLAGSERQAKTGATGQRLKEATKINLSLSTLGNVISALVDGKSTHVPYRNSKLTRLLQDSLGGNSKTMMCANIGPADYNYDETISTLRYANRAKNIKNKARINEDPKDALLRQFQKEIEELKKKLEEGEEVSGSDISGSEEDDEEGELGEDGEKKKKRRDQAGKKKVSPDKMVEMQAKIDEERKALETKLDMEEEERNKARAELERREKDLLKAQQEHQSLLEKLSALEKKVIVGGVDLLAKAEEQEKLLEESNMELEERRRRAEQLRKELEEKEQERLDIEEKYTSLQEEAQGKTKKLKKVWTMLMAAKSEMADLQQEHQREIEGLLENIRQLSRELRLQMLIIDNFIPQDYQEMIENYVHWNEDIGEWQLKCVAYTGNNMRKQTPVPDKKERDPFEVDLSHVYLAYTEESLRQSLMKLERPRTSKGKARPKMGRRKRSAKPETVIDSLLQ
modifications: Alexa647 or TMR dye on the SNAP tag
[2]
  stoichiometry N: 2

B3: KIF3A (homodimer, separately purified) (natural protein, mouse, UniProt P28741 1-701, looked up)
chain: MPINKSEKPESCDNVKVVVRCRPLNEREKSMCYRQAVSVDEMRGTITVHKTDSSNEPPKTFTFDTVFGPESKQLDVYNLTARPIIDSVLEGYNGTIFAYGQTGTGKTFTMEGVRAVPGLRGVIPNSFAHIFGHIAKAEGDTRFLVRVSYLEIYNEEVRDLLGKDQTQRLEVKERPDVGVYIKDLSAYVVNNADDMDRIMTLGHKNRSVGATNMNEHSSRSHAIFTITIECSEKGVDGNMHVRMGKLHLVDLAGSERQAKTGATGQRLKEATKINLSLSTLGNVISALVDGKSTHVPYRNSKLTRLLQDSLGGNSKTMMCANIGPADYNYDETISTLRYANRAKNIKNKARINEDPKDALLRQFQKEIEELKKKLEEGEEVSGSDISGSEEDDEEGELGEDGEKKKKRRDQAGKKKVSPDKMVEMQAKIDEERKALETKLDMEEEERNKARAELERREKDLLKAQQEHQSLLEKLSALEKKVIVGGVDLLAKAEEQEKLLEESNMELEERRRRAEQLRKELEEKEQERLDIEEKYTSLQEEAQGKTKKLKKVWTMLMAAKSEMADLQQEHQREIEGLLENIRQLSRELRLQMLIIDNFIPQDYQEMIENYVHWNEDIGEWQLKCVAYTGNNMRKQTPVPDKKERDPFEVDLSHVYLAYTEESLRQSLMKLERPRTSKGKARPKMGRRKRSAKPETVIDSLLQ
SEC-MALS
  stoichiometry N: 2
[3]
  binding result: binds
